This assay has as its target GFP-Joka2 (tomato (SlJoka2)). Put plainly: FRET or BRET; FRET-FLIM in N. benthamiana leaves; donor GFP-Joka2, acceptors RFP fusions; GFP lifetime measured in GFP-JOKA2 aggregates. For orientation: In BRET a luciferase serves as donor, and the signal depends on an acceptor being close.

In the case of RFP-XopL (natural protein), the reduction of the donor's fluorescence lifetime came out at 0.1 ns.

The record behind these values is PMC9251887.
